For test [1], the system named is PC-9 Gefitinib resistant clones (CL75, CL86, CL131) and parental PC-9. Nature of the test: Flow cytometry binding on PC-9 and gefitinib resistant PC-9 clones. The class given is cell-based. The method, then: (§1) Cells were harvested as single cell suspensions using trypsin. 1E5 cells were used per sample, and incubated with 100 μl of mAb culture supernatant for 30 min. Cells were then washed with 1% bovine serum albumin in PBS, and further incubated with 100 μl of goat anti-mouse antibody fluorescein isothiocyanate (FITC)-conjugated (1:500, DAKO, Denmark) for 15 min at 4° C. in the dark. Cells were again washed and resuspended in 200 μL of 1% BSA/PBS for analysis on Guava® easy Cyte 8HT Benchtop Flow Cytometer (Merck Millipore, USA). For interrogation of […] binding, cells were fixed with 4% PFA/PBS (Affymetrix, USA) at room temperature for 10 min, washed in PBS, and permeabilised with 0.1% triton/PBS for 5 min at room temperature, before proceeding with incubation with mAb supernatant/primary antibody. For staining with propidium iodide, PI was added to a final concentration of 5 μg/mL for 5 min just prior to analysis by the flow cytometer.
For orientation: Flow cytometry measures light scatter and fluorescence of single cells or particles in a stream.

The test system of test [2] is normal cell lines (fibroblasts, endothelial and epithelial cells) and primary PBMCs. As to the kind of experiment: Flow cytometry binding on normal cells. The class given is cell-based. The method, then:
as §1

Another test concerns cancer cell lines. As to the kind of experiment: IHC staining on FFPE cell line array. The class given is cell-based. The following applies: gastric, lung, colorectal and pancreatic cancer cell lines. The method, then: (§2) TMA slides containing FFPE tissues were first heated in an oven at 60° C. for 30 min to remove any solvents. The slides were then dewaxed and re-hydrated through sequential immersion in Histoclear (2×), 100% ethanol (2×), 95% ethanol, 70% ethanol, and finally in DI water.
(§3) Heat-induced epitope retrieval was done in a solution containing 10 mM Tris Base, 1 mM EDTA, 0.05% Tween 20 at pH 9.0, and heated at 95° C. for 20 min. The container with the antigen retrieval solution and slides was then removed and allowed to cool to room temperature for an additional 20 min. The slides were then washed in DI water. Endogenous peroxidase activity was then blocked by incubation of the slides with 3% H2O2 in PBS for 30 min at room temperature. The slides were washed in DI water, followed by a blocking step with 10% normal goat serum in PBS for 30 min.
The slides were then incubated with GR6A04 at 5 μg/mL in blocking solution overnight at 4° C. The slides were then washed an incubated with a polymer-based anti-mouse secondary antibody conjugated with HRP (DAKO, USA) for 30 min at room temperature, and developed with the recommended DAB chromogen substrate solution for 2 min, and counterstained with Gill's Hematoxylin solution. […]

For the next test, the system named is NSCLC tissue. As to the kind of experiment: IHC staining on NSCLC tissue microarray with adjacent normal (LC 1001 2a). How it is done: as §2, §3
(§4) The slides were then incubated with GR6A04 at 5 μg/mL in blocking solution overnight at 4° C. The slides were then washed an incubated with a polymer-based anti-mouse secondary antibody conjugated with HRP (DAKO, USA) for 30 min at room temperature, and developed with the recommended DAB chromogen substrate solution for 2 min, and counterstained with Gill's Hematoxylin solution.
(§5) The stained slides were subsequently dehydrated through immersion in 50% ethanol, 70% ethanol, 90% ethanol, 100% ethanol (2×) and Histoclear (2×), before mounting with a glass cover slip. The slides were then imaged with the Zeiss AxioScan Digital Slide Scanner.

The test system of the next test is normal tissues. As to the kind of experiment: IHC staining on FFPE normal tissue microarray (MNO961). How it is done: as §2, §3, §4, §5
A further test deals with PC-9 cells. As to the kind of experiment: Antibody internalisation by immunofluorescence. The format is cell-based. The conditions noted are these: 37° C.; a proportion of cells not internalised at 120 min.
The next test concerns the target A549−GR6A04+. Nature of the test: ADCC reporter bioassay (Promega, Luciferase reporter for FcγR). The format is cell-based. How it is done:
(§6) ADCC activity was measured using a reporter bioassay (Promega; ADCC Reporter Bioassay, #G7010). The ADCC bioassay was carried out according to the manufacturer's protocol Briefly, PC-9 and A549 cells were seeded at 5,000 cells per well in a 96-well clear bottom black tissue culture plates (Corning; #3904) in low 4% IgG-serum (Promega; #G711A) media and allowed to attach and spread overnight. Serial dilutions of Hu-GR6A04 were incubated in triplicate wells for approximately 15 min at 37° C., 5% CO2. Following incubation, engineered effector cells were added to the wells at approximately 150,000 cells per well. After 6 hours, Bio-Glo™ Luciferase Assay Substrate (Promega; #G719A and #G720A) was added to the wells and luminescence was measured using the Infinite® 200 microplate reader (Tecan).

The target in a further test is PC-9. The test is described as above. The class given is cell-based. How it is done:
as §6

The test system of a further test is A549−GR6A04+ cells. As to the kind of experiment: Subcutaneous xenograft model. The class given is in vivo, NCr Nude mice. The following applies: 10 mg/kg, 3 doses on D0, D4 and D8, start at tumour size >150 mm3. How it is done:
Xenograft models were established using A549−GR6A04+ cells in NCr Nude mice. 5E6 cells in DMEM basal media were mixed at a 1:1 ratio with Matrigel, and injected subcutaneously at a volume of 200 μl. Tumours were allowed to form and reach a size of >150 mm^3, before they were randomised into 5 groups of 5 mice each. The groups were treated with mAbs as follows: (1) Buffer control; (2) GR6A04-MMAE; (3) Hu-GR6A04; (4) GR6A04; (5) MG1.45-MMAE isotype control. mAbs were injected via tail vein injection at a total volume of 100 μl. Each dose, were applicable, is at 200 μg (equivalent to 10 mg/kg), and treatment was done every 4 days, for a total of 3 doses (Day 0, 4 and 8). Tumour size was monitored over 50 days.

As a reminder, the EC50 is the midpoint of the concentration-response curve. A higher EC50 goes with lower potency in that assay.

B1: GR6A04: mouse IgG1, κ anti-CEACAM6 monoclonal antibody, VH SEQ ID NO:1, VL SEQ ID NO:2, binds N-glycosylated CEACAM6 (antibody, V domains shown)
VH: SGPELVKPGASVKMSCKASGNTFTSYVMHWVKQKPGQGLEWIGYINPYNDGTKYNEKFKGKATLTSDKSSSTAYMELSSLTSEDSAVYYCARSTARATPYFYAMDYWGQGTSVTVSS
VL: DILMTQSPSSLAVTAGEKVTMRCKSSQSLLWSVNQNSYLSWYQLKQGQPPKLLLYGASIRESWVPDRFTGSGSGTDFTLTISNVHVEDLAVYYCQHNHGSFLPYTFGGGTKLEIK
modifications: Isolated antibody fragment
Take B1: the binding result in test [1] (Gefitinib sensitive parental PC-9 and another GR PC-9 clone not used in immunisation) is listed as “similarly high binding”. The “percentage positive-binding (reactivity)” value in [1] (three PC-9 Gefitinib resistant clones used for immunisation, FL-1 gated at 2% on secondary-only control) is reported as above 50%. Further, the “binding on the cell surface of normal cells” value in test [2] is on record as below 8%. Also, in the test with cancer cell lines, the “IHC reactivity on FFPE cell line array” value is “reactive”. Also, in the test with NSCLC tissue (LC 1001 2a), the “positive staining adenocarcinoma (cores positive/total)” value is on record as 9/18, the “positive staining squamous (cores positive/total)” value was 4/27 and the “staining of paired adjacent normal tissue” value is on record as “did not have any positive staining”. Further, the “staining of paired adjacent normal tissue” value in the test with NSCLC tissue (LC 1001 2a, listed as GR 6A04) is “negative staining”. Also, in the test on NSCLC tissue (focused NSCLC TMA), the “positive stained lung adenocarcinoma cores” value turned out to be 50% and the “positive stained squamous cell cancer cores” value was found to be 15%. Besides, in the test on normal tissues (MNO961), the “colon cores weakly positive (2+)” value was 2 of 3, the “normal tissue cores stained positive” value is given as 3 and the “prostate cores weakly positive (2+)” value is 1 of 3. Further, in the test on normal tissues (MNO961, 35 anatomical sites), the “normal tissue cores with no staining” value was 93 of the 96. For the same molecule, the time to internalise with PC-9 cells is listed as at most 120 min. The same molecule returned a concentration for a half-maximal effect (EC50) at A549−GR6A04+ of 1.33 nM. The molecule also showed an EC50 at PC-9 of 39.6 nM. Also, the “tumour growth versus buffer control” value in the test on A549−GR6A04+ cells is “slower growth compared to the buffer control”. In addition, the “tumour growth versus buffer control” value in the test on A549−GR6A04+ cells (listed as Gr6A04) is listed as “repression of tumour growth”.

The values above are taken from patent US12227570B2, “Anti-CEACAM6 antibodies and methods of use” (Singapore Health Services PTE LTD, priority 2016, dated 2025).
